How the values were obtained:
[1] = biological target: T1, hu4-1BB-Fc (R&D Systems) (human, UniProt Q07011 24-186); assay: SPR (Biacore 8K), hu4-1BB-Fc captured by anti-human IgG Fc; apparent value, 1:1 fit
T1 construct: Bought; also called human 4-1BB; not shown: human IgG Fc of the bought fusion
In short: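 hu4-1BB-Fc at 0.3 μg/mL captured for 180 s on amine-coupled anti-human IgG Fc (CM5 chip). Analyte contact 180 s, dissociation 1200 s or 3000 s, 30 μL/min, 25° C. Double-referenced sensorgrams fitted to a 1:1 binding model.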

[2] = biological target: T2, human 4-1BB on cells (human, UniProt Q07011 24-255); assay: flow cytometry on CHO cells stably transfected with human 4-1BB, anti-NGAL detection, GeoMean BL1-H
T2 construct: whole, on cells; Stably transfected CHO cells (flow cytometry) and bought Jurkat reporter cells (bioassay); also called Flp-In-CHO::hu4-1BB; human 4-1BB-expressing CHO cells
Description: (§1) 5×10⁴ cells per well were incubated for 1 h in ice-cold PBS containing 5% fetal calf serum (PBS-FCS). A dilution series of the tested multimeric proteins (SEQ ID NOs: 38-44 and 46-55), the 4-1BB-targeting lipocalin mutein as included in the multimeric proteins (SEQ ID NO: 64) or the GPC3-targeting lipocalin SEQ ID NO: 90 were added to the cells and incubated for 1 h on ice. Cells were washed twice with PBS and then incubated with a rabbit anti-NGAL or a goat anti-human IgG labeled with fluorescent dye Alexa 488 for 30 min on ice. Human IgG4 isotype (SEQ ID NOs: 29 and 30) and lipocalin mutein SEQ ID NO: 8 were tested as a negative control. Cells were subsequently washed and analyzed using iQue Flow cytometer (Intellicyte Screener). Mean geometric fluorescent signals were plotted and fitted with Graphpad software using nonlinear regression (shared bottom, four parameters, variable slope).
(§2) Target-specific binding of hexavalent trimeric proteins to human 4-1BB-, OX40- or PD-L1-expressing cells was assessed by flow cytometry as described in Example 5, using CHO cells stably transfected with human 4-1BB, human OX40 or human PD-L1 (Flp-In system; Life Technologies).

[3] = biological target: T3, cynomolgus 4-1BB on CHO cells (cynomolgus, UniProt A9YYE7 24-254); assay: flow cytometry, Flp-In-CHO::cyno4-1BB cells
T3 construct: also called Flp-In-CHO::cyno4-1BB; cynomolgus 4-1BB-expressing CHO cells
In short: (§3)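 Flp-In CHO cells stably expressing human or cynomolgus 4-1BB (mock-transfected control), 5×10⁴/well, incubated 1 h on ice with dilution series of test proteins. Binding detected with rabbit anti-NGAL or Alexa 488 anti-human IgG (30 min, ice); geometric mean fluorescence fitted by four-parameter nonlinear regression.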

[4] = biological target: T4, recombinant hu4-1BB-His (human 4-1BB with a C-terminal polyhistidine tag, R&D Systems) (human, UniProt Q07011 24-186); assay: ELISA, hu4-1BB-His coated, detection anti-NGAL-HRP
T4 construct: Bought; not shown: C-terminal polyhistidine tag
In short: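 Plates coated with hu4-1BB-His (1 μg/mL, overnight, 4° C) and blocked with 2% BSA; test proteins at 100 to 0.002 nM bound 1 h at room temperature. Detection by anti-NGAL-HRP with fluorogenic substrate; EC₅₀ from 1:1 sigmoidal fit, slope fixed to one.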

[5] = biological target: T2, human 4-1BB on cells; assay: flow cytometry, Flp-In-CHO::hu4-1BB cells
In short: as §3

[6] = biological target: T2, human 4-1BB on cells; assay: cell-based or functional assay
[7] = biological target: T5, huGPC3-His (human GPC3 with C-terminal polyhistidine tag, R&D Systems) (human, UniProt P51654 25-559, limits assumed); assay: dual-binding ELISA, huGPC3-His coated, detection with biotinylated hu4-1BB-His and Extravidin-HRP
T5 construct: Bought; not shown: C-terminal polyhistidine tag
Description: Recombinant huGPC3-His (human GPC3 with C-terminal polyhistidine tag, R&D Systems) at the concentration of 1 μg/mL in PBS was coated overnight on microtiter plates at 4° C. After washing with PBS-0.05% T (PBS supplemented with 0.05% (v/v) Tween 20), the plates were blocked with 2% BSA (w/v) in PBS-0.1% T (PBS supplemented with 0.1% (v/v) Tween 20) for 1 h at room temperature. After washing with 100 μL PBS-0.05% T five times, exemplary multimeric proteins (SEQ ID NOs: 54 and 55) at different concentrations, ranging from 100 to 0.002 nM, were added to the wells and incubated for 1 h at room temperature, followed by another wash step. Bound molecules under study were detected by incubation with 1 μg/mL recombinant hu4-1BB-His (biotinylated human 4-1BB with C-terminal polyhistidine tag, Sino Biological) in PBS-0.1% T-2% BSA for 1 h. This step was followed by a further wash step and incubation with 1:5000 diluted Extravidin-HRP in PBS-0.1% T-2% BSA. After an additional wash step, fluorogenic HRP substrate (QuantaBlu, Thermo) was added to each well and the fluorescence intensity was detected using a fluorescence microplate reader.

[8] = biological target: T5, huGPC3-His (human GPC3 with C-terminal …); assay: ELISA, huGPC3-His coated, detection anti-NGAL-HRP
Description: (§4) Recombinant hu4-1BB-His (human 4-1BB with a C-terminal polyhistidine tag, R&D Systems) at the concentration of 1 μg/mL in PBS was coated overnight on microtiter plates at 4° C. After washing with PBS-0.05% T (PBS supplemented with 0.05% (v/v) Tween 20), the plates were blocked with 2% BSA (w/v) in PBS-0.1% T (PBS supplemented with 0.1% (v/v) Tween 20) for 1 h at room temperature. After washing with 100 μL PBS-0.05% T five times, exemplary multimeric proteins (SEQ ID NOs: 38-44 and 46-53) or 4-1BB-specific lipocalin mutein as included in the multimeric protein (SEQ ID NO: 64) at different concentrations, ranging from 100 to 0.002 nM, were added to the wells and incubated for 1 h at room temperature, followed by another wash step. Bound molecules under study were detected by incubation with 1:1000 diluted anti-NGAL-HRP in PBS-0.1% T-2% BSA. After an additional wash step, fluorogenic HRP substrate (QuantaBlu, Thermo) was added to each well and the fluorescence intensity was detected using a fluorescence microplate reader.
The same ELISA setup was also employed to determine the binding potency of exemplary bispecific multimeric proteins (SEQ ID NO: 54 and SEQ ID NO: 55) to GPC3, where huGPC3-His (human GPC3 with C-terminal polyhistidine tag, R&D Systems) was instead coated on a microtiter plate. The testing agents were similarly titrated and bound agents detected.

[9] = biological target: T6, human GPC3 on HepG2 cells (human, UniProt P51654 25-554); assay: flow cytometry, HepG2 cells
T6 construct: whole, on cells; Endogenous GPC3 of the tumor cell line; also called GPC3-positive tumor cell line HepG2; human GPC3-expressing HepG2 cells
Description: (§5) GPC3-positive tumor cell line HepG2 was cultured in Dulbecco's Modified Eagle's Medium ([…], Pan Biotech) supplemented with 10% Fetal Calf Serum (Sigma-Aldrich) and in cell culture flasks according to manufacturer's instruction (37° C., 5% CO₂ atmosphere).
as §1

[10] = biological target: T2, human 4-1BB on cells; assay: flow cytometry on Flp-In-CHO::huCD137 (human 4-1BB) cells, anti-NGAL detection, GeoMean BL1-H
Description: (§6) CHO cells were stably transfected with human 4-1BB, cynomolgus 4-1BB, or a mock control using the Flp-In system (Life Technologies) according to the manufacturer's instructions. Transfected CHO cells were maintained in Ham's F12 medium (Life Technologies) supplemented with 10% Fetal Calf Serum (Biochrom) and 500 μg/ml Hygromycin B (Roth). Cells were cultured in cell culture flasks according to manufacturer's instruction (37° C., 5% CO₂ atmosphere).
as §1

[11] = biological target: T3, cynomolgus 4-1BB on CHO cells; assay: flow cytometry on Flp-In-CHO::cyCD137 (cynomolgus 4-1BB) cells, anti-NGAL detection, GeoMean BL1-H [Cont'd) B]
Description: as §6, §1

[12] = biological target: T6, human GPC3 on HepG2 cells; assay: flow cytometry on HepG2 cells (human GPC3), anti-NGAL detection, GeoMean BL1-H [Cont'd) C]
Description: as §5, §1

[13] = biological target: T7, human PD-L1 on CHO cells (human, UniProt Q9NZQ7 19-290); assay: flow cytometry on CHO cells stably transfected with human PD-L1, anti-NGAL detection, GeoMean BL1-H
T7 construct: whole, on cells; Stably transfected CHO cells; also called Flp-In-CHO::huPD-L1; human PD-L1-expressing CHO cells
Description: as §1, §2

[14] = biological target: T4, recombinant hu4-1BB-His (human 4-1BB …); assay: ELISA, hu4-1BB-His coated on the plate, bound agent detected with anti-NGAL-HRP
Description: C-terminal His-tagged 4-1BB or GPC3 was coated on a microtiter plate, and the tested agents were titrated starting with the highest concentration of 100 nM. Bound agents under study were detected via anti-NGAL-HRP. The data was fit with a 1:1 binding model with the EC₅₀ value and the maximum signal as free parameters, and a slope that was fixed to one.
as §4

T2 sequence (Q07011 24-255): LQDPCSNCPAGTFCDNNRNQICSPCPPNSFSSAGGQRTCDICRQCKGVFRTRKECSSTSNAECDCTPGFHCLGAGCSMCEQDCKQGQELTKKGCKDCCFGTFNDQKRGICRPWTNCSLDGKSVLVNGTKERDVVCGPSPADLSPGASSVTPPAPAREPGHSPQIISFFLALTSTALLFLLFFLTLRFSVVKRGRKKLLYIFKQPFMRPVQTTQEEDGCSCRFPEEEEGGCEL
T3 sequence (A9YYE7 entry or part of it limits assumed): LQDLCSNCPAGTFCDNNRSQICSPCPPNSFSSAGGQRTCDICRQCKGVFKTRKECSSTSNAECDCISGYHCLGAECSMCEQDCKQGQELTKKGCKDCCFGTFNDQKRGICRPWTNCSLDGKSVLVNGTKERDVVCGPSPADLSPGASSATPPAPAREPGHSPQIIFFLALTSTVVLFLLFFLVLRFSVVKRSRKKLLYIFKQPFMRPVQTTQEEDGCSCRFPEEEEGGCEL
T5 sequence (P51654 25-559 limits assumed): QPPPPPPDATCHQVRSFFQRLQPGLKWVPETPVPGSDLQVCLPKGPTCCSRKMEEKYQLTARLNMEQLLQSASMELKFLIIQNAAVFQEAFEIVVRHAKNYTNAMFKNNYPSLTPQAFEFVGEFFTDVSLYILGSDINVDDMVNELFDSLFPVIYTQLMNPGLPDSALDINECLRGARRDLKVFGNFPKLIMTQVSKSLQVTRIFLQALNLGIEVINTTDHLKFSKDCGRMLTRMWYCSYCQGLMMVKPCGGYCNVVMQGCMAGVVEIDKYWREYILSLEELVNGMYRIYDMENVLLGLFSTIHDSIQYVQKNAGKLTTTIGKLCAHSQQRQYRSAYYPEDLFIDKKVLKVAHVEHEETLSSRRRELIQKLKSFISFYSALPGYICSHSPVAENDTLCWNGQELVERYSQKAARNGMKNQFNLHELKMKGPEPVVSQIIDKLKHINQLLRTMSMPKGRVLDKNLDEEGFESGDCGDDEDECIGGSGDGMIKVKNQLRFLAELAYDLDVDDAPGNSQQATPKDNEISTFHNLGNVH
T6 sequence (P51654 25-554 limits assumed): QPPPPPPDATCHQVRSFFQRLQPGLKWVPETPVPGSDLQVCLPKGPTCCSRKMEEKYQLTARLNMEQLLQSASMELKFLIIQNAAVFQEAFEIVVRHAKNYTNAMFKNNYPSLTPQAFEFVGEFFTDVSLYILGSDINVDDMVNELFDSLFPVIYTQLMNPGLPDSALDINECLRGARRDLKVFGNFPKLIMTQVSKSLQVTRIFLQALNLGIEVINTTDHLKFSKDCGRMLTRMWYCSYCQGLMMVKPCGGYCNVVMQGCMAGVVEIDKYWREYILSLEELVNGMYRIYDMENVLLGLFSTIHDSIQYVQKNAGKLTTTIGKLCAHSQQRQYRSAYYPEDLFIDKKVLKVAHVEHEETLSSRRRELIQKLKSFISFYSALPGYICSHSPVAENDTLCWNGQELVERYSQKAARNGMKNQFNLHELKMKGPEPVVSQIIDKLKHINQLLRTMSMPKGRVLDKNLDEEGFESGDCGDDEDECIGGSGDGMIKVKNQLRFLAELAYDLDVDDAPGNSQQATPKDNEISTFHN
T7 sequence (Q9NZQ7 19-290): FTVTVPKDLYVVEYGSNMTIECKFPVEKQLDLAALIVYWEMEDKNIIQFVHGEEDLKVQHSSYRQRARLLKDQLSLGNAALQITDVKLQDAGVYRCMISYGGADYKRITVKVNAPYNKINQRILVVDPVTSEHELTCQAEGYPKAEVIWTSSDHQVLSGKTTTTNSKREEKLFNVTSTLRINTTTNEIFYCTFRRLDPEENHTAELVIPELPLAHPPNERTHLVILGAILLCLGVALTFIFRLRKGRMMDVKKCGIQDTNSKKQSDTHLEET

| Binder | Kd [1] [nM] | koff [1] [s⁻¹] | kon [1] [M⁻¹ s⁻¹] | EC50 (read off the curve) [2] [nM] | EC50 [3] [nM] | EC50 [4] [nM] | EC50 [5] [nM] | EC50 [nM], 4-1BB bioassay (NFκB-luc2/4-1BB Jurkat luminescence), with HepG2 cells [6] [nM] | EC50 [7] [nM] | EC50 [8] [nM] | EC50 [9] [nM] | binding result [10] | binding result [11] | binding result [12] | binding result [13] | binding result [14] |
| --- | --- | --- | --- | --- | --- | --- | --- | --- | --- | --- | --- | --- | --- | --- | --- | --- |
| multimeric protein SEQ ID NO: 52 (designed binder) QDSTSDLIPAPPLSKVPLQQNFQDNQFHGKWYVVGQAGNIRLREDKDPIKMMATIYELKEDKSYDVTMVKFDDKKCMYDIWTFVPGSQPGEFTLGKIKSFPGHTSSLVRVVSTNYNQHAMVFFKFVFQNREEFYITLYGRTKELTSELKENFIRFSKSLGLPENHIVFPVPIDQCIDGGGGGSGGGGSGGGGSQDSTSDLIPAPPLSKVPLQQNFQDNQFHGKWYVVGQAGNIRLREDKDPIKMMATIYELKEDKSYDVTMVKFDDKKCMYDIWTFVPGSQPGEFTLGKIKSFPGHTSSLVRVVSTNYNQHAMVFFKFVFQNREEFYITLYGRTKELTSELKENFIRFSKSLGLPENHIVFPVPIDQCIDGGGGGSGGGGSGGGGSGVRLWATRQAMLGQVHEVPEGWLIFVAEQEELYVRVQNGFRKVQLEARTPLGGSGGAPEQKLISEEDLGSHHHHHHHHHH | 0.24 | 2.19e-05 | 90400 | ~2 | 3.36 | 0.12 | 1.5 | 1 |  |  |  |  |  |  |  |  |
| bispecific multimeric protein SEQ ID NO: 55 (designed binder) QDSTSDLIPAPPLSKVPLQQNFQDNQFQGKWYVVGRAGNVGLREDKDPPKMWATIYELKEDKSYDVTNVRFARKKCTYSIGTFVPGSQPGEFTLGQIKSEPGGTANLVRVVSTNYNQHAMVFFKEVYQNREIFFIILYGRTKELTSELKENFIRFSKSLGLPENHIVFPVPIDQCIDGGGGGSGGGGSGGGGSGVRLWATRQAMLGQVHEVPEGWLIFVAEQEELYVRVQNGFRKVQLEARTPLGGGGSGGGGSGGGGSQDSTSDLIPAPPLSKVPLQQNFQDNQFHGKWYVVGQAGNIRLREDKDPIKMMATIYELKEDKSYDVTMVKFDDKKCMYDIWTFVPGSQPGEFTLGKIKSFPGHTSSLVRVVSTNYNQHAMVFFKFVFQNREEFYITLYGRTKELTSELKENFIRFSKSLGLPENHIVFPVPIDQCIDGGGSGGAPEQKLISEEDLGSHHHHHHHHHH | 0.71 | 5.99e-05 | 84000 |  | 6.62 |  | 4.08 | 0.69 | 1.3 | 0.1 | 2.98 |  |  |  |  |  |
| SEQ ID NO: 8 (designed binder) lipocalin mutein: QDSTSDLIPAPPLSKVPLQQNFQDNQFHGKWYVVGLAGNAILREDKDPQKMYATIYELKEDKSYNVTSVLFRKKKCDYWIRTFVPGSQPGEFTLGNIKSYPGLTSYLVRVVSTNYNQHAMVFFKKVSQNREYFKITLYGRTKELTSELKENFIRFSKSLGLPENHIVFPVPIDQCIDG |  |  |  |  |  |  |  |  |  |  |  | no binding (tested: about 200 nM) | no binding (tested: about 200 nM) | no binding (tested: about 200 nM) | no binding (tested: about 7 nM) | no binding (tested: 100 nM) |
